According to the supplement of paper PMC9170038:

Tested on: MS2 coat protein
Assay: apparent KD of MS2 coat protein; higher = weaker reporter binding
Conditions: Eterna round: R107; input ligand: theophylline 20 uM
Experimental: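 RNA-MaP round R107: designed RNA switches with theophylline, tryptophan, arginine or FMN aptamers are transcribed on-chip within common flanks. They are titrated with SNAP-549-labelled MS2 coat protein in RNA-MaP buffer (100 mM Tris pH 7.5, 80 mM KCl, 4 mM MgCl2), without ligand or with the indicated ligand. Median apparent KD per design.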

“GGGCCUGUAAGCAGACCCACAGCGGGUGAUACCAGCAAUAAAACUUGCCCUUGGCAGCACACAGCUACAUGAGGAUCACCCAUGU [Rausis]” and “AGUCUGGACUCGGCCGCCACUCGUGAUGCUUUGGCACAUGAGGAUCACCCAUGUGGUCGGCCUUAGAGGACCGGGAGUACCAGUC [Ariaredle]” are within 1.5-fold of each other in “apparent KD of MS2 coat protein” value: 92.9 nM for the first, 84.9 nM for the second.

Compared with “AGCCUAUUACAUGAGGAUCACCCAUGUGAUACCAGUCAGGAAACUGACCCUUGGCAGCGCAUGAGGAUCACCCAUGCGCUAGGCA [Omei Theo A Exc A v5]”, “AGAGUCUAGUCGGCCGCCACUCAUGUCCAAAGGACAUGAGGAUCACCCAUGUACCUAAGGUACAUGAGGACCGGGACUGGACUCA [Omei Tryp B SS C v5]” is 11-fold higher in “apparent KD of MS2 coat protein” value: 12.3 nM for the first, 131 nM for the second.

Compared with “UUGAACAUGAGGAUCACCCAUGUGGAUGAUACCAGCUAAAACAUAAGCCCUUGGCAGCAUUAAAAUGAAAUAUCGAAAAGGAAAG [theeternabot_sameState_MS2_Theo_A_1]”, “UUUUUCGCGGGUGAUACCAGCAGAGUUGUACUGGUCUGGUACAUGAGGAUCACCCAUGUUUGCCCUUGGCAGCGCUCGGGAGAAG [#23 Exclusion-TheophyllineB]” is 5.6-fold lower in “apparent KD of MS2 coat protein” value: 179 nM for the first, 32.1 nM for the second.

“UCACAUGAGGAUCACCCAUGUACAACUGAAGGAGCGAGACAAAACUCAGGUAGGUCGCAGAAUAAACAAUAGCAUACGACAUGGG [Exclusion Arginine A GF 19]” and “AAUUAAACAUCGGCCGCCACUUACUCAUGAGGUAACAACAUGAGGAUCACCCAUGUUUGAGGAUCAAGGACCGGGAUGUAAUAAU [AstrosSSTryB#2]” are within 1.5-fold of each other in “apparent KD of MS2 coat protein” value: 43.1 nM for the first, 38.5 nM for the second.

First: GGUGGAGGCGUGGGACUUGUCUGAACGGAUACCAGCCACAUCACGGGCCCUUGGCAGCUGUACAUGAGGAUCACCCAUGUCGGUC [Atestevete]
Second: UAUCCACAUGAGGAUCACCCAUGUAGGGAAGGAGCGGUGGUUGCACCAGGUAGGUCGCCUUGCUGAGGAUAACCGGUGGAAUCGU [Exclusion - Arginine A (Freestyle 28)]
The “apparent KD of MS2 coat protein” value of the first is 1.7-fold higher: 45.2 nM for the first, 26.9 nM for the second.

Compared with “AGUACAUGAGGAUCACCCAUGUGCCGGUAACGAGGACCGGUACGGCCGCCACUCGAUGUACCUCAAUUUGAUUGAGAUAAGAAAA [Anorbian]”, “AUUCAUGAAAACAUGACAUAGGGAUCACUCCGAGGACCGGUACGGCCGCCACUCGCGAGGAGGCACAUGAGGAUCACCCAUGUUA [SS Tryp A #3]” is 2.5-fold higher in “apparent KD of MS2 coat protein” value: 57.6 nM for the first, 146 nM for the second.

First: GGACUAACCAGAAGGAGCGACACGCAGAAACUGCAAUUUCCUCUACACGAGGAUCACCCGUGUCAGGUAGGUCGCUGGUUAGUCG
Second: GAUGGAAUAAGAGAUACCAGACACAAUUUAGCAUGUAUAUACAUGAGGAUCACCCAUGUAGUCCCUUGGCAGCUCUGGUUAGUGU [theeternabot_exclusion_MS2_Theo_B_48]
The “apparent KD of MS2 coat protein” value of the first is 2.7-fold higher: 74.8 nM for the first, 27.7 nM for the second.

First: GCACGACAUGAGGAUCACCCAUGUGCCGAUACCAGCCGGAUAUACGGCCCUUGGCAGCGGAGUGGAUCCGGAGGACCAUGGGUAA [Same State Theophylline A GF7]
Second: AUAACUGCCAAGGAUCAUGGGUGAGCAGAUACCAGCUAGGAAACUAGCCCUUGGCAGCUGCAACAUGAGGAUCACCCAUGUAAUA [(T)'-(M)'-(T1)-(T2)-(M1)-(M2)_Design8]
The “apparent KD of MS2 coat protein” value of the first is 1.9-fold higher: 156 nM for the first, 83.8 nM for the second.

“AAAUAAAUACAUGAGGAUCACCCAUGUGAAGGAGCGCGCGUUAGCGCAGGUAGGUCGCACAUGAACUCCAAAGUGCGAAAGCACA [MAT - Exclusion Arginine A - Mod of Eli - D9]” and “AAUGAACAUGAGGAUCACCCAUGUCGUGAUACCAGCCGUAAGAGUGGCCCUUGGCAGCGCCAUGAGGACAACAACAUACAUGAGG [Same State Theophylline A]” are within 1.5-fold of each other in “apparent KD of MS2 coat protein” value: 23.1 nM for the first, 29.7 nM for the second.

In the case of “GUGACUUACGGGCGCCAUUUGUAAUAGGAAGGAGCGGCGAAAUAGCCAGGUAGGUCGCCUAUACAUGAGGAUCACCCAUGUCACC [Esatbileor]”, the “apparent KD of MS2 coat protein” value is reported as 105 nM.

Same assay, conditions: Eterna round: R107; input ligand: theophylline 2 mM

“AGUUGACGAAAGUCAGCAACAUGAUCCGAAGGAGCGGGCGAAAGCCCAGGUAGGUCGCGGACAUGAGGAUCACCCAUGUCUCCUU [MAT - Exclusion Arginine A - Mod of Eli - D12]” and “UAAUAAGUGCCGGUUCUCAGAUCCUCAUGUCGAGGACCGGUACGGCCGCCACUCGAAACAUGAGGAUCACCCAUGUAAUAAUAAU [#08 Exclusion Tryptophan A]” are within 1.5-fold of each other in “apparent KD of MS2 coat protein” value: 92.6 nM for the first, 73.1 nM for the second.

Compared with “UACAUGAGGAUCACCCAUGUCGGCAGGGAAGGAGCGGCAAUAAAGCCAGGUAGGUCGCCCAUUAGUAUUUAUAAAUAAAUAUCCA [Same State - Arginine A]”, “GGUGGCGUGACGGAUACCAGCCACCGCGGCAACGCAACAUGAGGAUCACCCAUGUUGGGUGGCCCUUGGCAGCUGUCGUGCGGCG [#1 Same State - Theophylline B Attempt #23 (HarryS)]” is 2.8-fold lower in “apparent KD of MS2 coat protein” value: 75.9 nM for the first, 27.5 nM for the second.

First: UUAUAAGUACCGGUCCUCAGAUCCUCAUGACGAGGACCGGUACGGCCGCCACUCGAAACAUGAGGAUCACCCAUGUAAUAAUACU [Brourdmod08]
Second: CCUCAUGAACAUGAGGAUCACCCAUGUACACGAGGACCGGUACGGCCGCCACUCGAAUAACCUAAAUAUAAAUAAUAAUAAUAGG [5' end split MS2]
The “apparent KD of MS2 coat protein” value of the first is 1.8-fold higher: 33.1 nM for the first, 18.1 nM for the second.

First: AUUUUCGUAGGUUAAAGUUUAGAAACUGAAGGAGCGUGGUAUUACACAGGUAGGUCGCAGAUUUUACAUGAGGAUCACCCAUGUU [JR_ExcArginiA_Sub011]
Second: GGGUACAUCGCGGCCGCCACUCAUGUAAAUACCUGAGGAUCACCCUGGUCGAUGGAGACAUCGAAGAGGACCGGGUGAUGUACCG
The “apparent KD of MS2 coat protein” value of the first is 26-fold lower: 20.6 nM for the first, 528 nM for the second.

First: AGCACAUGAGGAUCACCCAUGUGUGGGUACCGAGGACCGGUACGGCCGCCACUCGCAGGACAUGAGGAUCACCCAUGUGCCGCCG [SSTA DOUBLE!!! :-D #7]
Second: AUAACAUGAGGAUCACCCAUGUAACCUGAAGGAGCGGACGAAAGUCCAGGUAGGUCGCAGGACUCCUUCAACAUGGGAGAGGGAG [SSArg-A #27 NuPack the Brourd]
The “apparent KD of MS2 coat protein” value of the first is 3.7-fold lower: 41.2 nM for the first, 152 nM for the second.

First: AGUCUGGACUCGGCCGCCACUCGUGAUGCUUUGGCACAUGAGGAUCACCCAUGUGGUCGGCCUUAGAGGACCGGGAGUACCAGUC [Ariaredle]
Second: AGAGUCUAGUCGGCCGCCACUCAUGUCCAAAGGACAUGAGGAUCACCCAUGUACCUAAGGUACAUGAGGACCGGGACUGGACUCA [Omei Tryp B SS C v5]
The “apparent KD of MS2 coat protein” value of the first is 5.3-fold lower: 63.5 nM for the first, 336 nM for the second.

Going from “UUUUUCGCGGGUGAUACCAGCAGAGUUGUACUGGUCUGGUACAUGAGGAUCACCCAUGUUUGCCCUUGGCAGCGCUCGGGAGAAG [#23 Exclusion-TheophyllineB]” to “UCACAUGAGGAUCACCCAUGUACAACUGAAGGAGCGAGACAAAACUCAGGUAGGUCGCAGAAUAAACAAUAGCAUACGACAUGGG [Exclusion Arginine A GF 19]”, the “apparent KD of MS2 coat protein” value falls from 44.4 nM to 26.3 nM (1.7-fold).

“AAUUAAACAUCGGCCGCCACUUACUCAUGAGGUAACAACAUGAGGAUCACCCAUGUUUGAGGAUCAAGGACCGGGAUGUAAUAAU [AstrosSSTryB#2]” and “UAUCCACAUGAGGAUCACCCAUGUAGGGAAGGAGCGGUGGUUGCACCAGGUAGGUCGCCUUGCUGAGGAUAACCGGUGGAAUCGU [Exclusion - Arginine A (Freestyle 28)]” are within 1.5-fold of each other in “apparent KD of MS2 coat protein” value: 36.8 nM for the first, 33.6 nM for the second.

For “AGUACAUGAGGAUCACCCAUGUGCCGGUAACGAGGACCGGUACGGCCGCCACUCGAUGUACCUCAAUUUGAUUGAGAUAAGAAAA [Anorbian]”, the “apparent KD of MS2 coat protein” value was 47.4 nM.
